According to article PMC6353898 (Scientific Reports, 2019):
Ends that are not written are not given here. * marks the point of attachment. FITC = O=C1OC2(c3ccc(O)cc3Oc3cc(O)ccc32)c2ccc(NC(=S)*)cc21; Ahx = NCCCCCC(=O)O

Target: T1, EGFR on A431 and MDA MB 468 cells (human (endogenous in A431 and MDA MB …, UniProt P00533 25-1210))
T1 construct: also called Epidermal growth factor receptor; EGFR overexpressing cells; source: endogenous, overexpressed on A431 and MDA MB 468 cells
Assay: flow cytometry on cells; A431, MDA MB 468 and HEK 293 cells; FITC labeled peptides 10 µM in HBSS, 37 °C, 15 minutes; washed, trypsinized; mean fluorescence intensity
Settings: one partner purified

fold fluorescence against the other peptides: 1.5 fold
B1: FITC conjugated Pep11 (designed binder)
peptide: {FITC-Ahx}-WSGENGPGFYDYEA
notes: Pep11, FITC labelled; also called FITC-Pep11; source: synthetic peptide (solid phase, Fmoc chemistry, HPLC purified)
